Laboratory results published in the supplement of paper PMC11246515.
± gives the standard deviation of the averaged measurements.

Experiment: total protein half-life in vivo (active degradation + dilution); higher = more stable protein
[1] = E. coli NCM3722 delta-clpP delta-lon delta-hslV, growth: N-lim chemostat, doubling time 6 h
[2] = E. coli NCM3722 delta-clpP, growth: N-lim chemostat, doubling time 6 h
[3] = E. coli NCM3722 delta-hslV, growth: N-lim chemostat, doubling time 6 h
[4] = E. coli NCM3722 delta-lon, growth: N-lim chemostat, doubling time 6 h
[5] = E. coli NCM3722 delta-smpB, growth: N-lim chemostat, doubling time 6 h
[6] = wild type E. coli NCM3722, growth: C-lim chemostat, doubling time 3 h
[7] = wild type E. coli NCM3722, growth: C-lim chemostat, doubling time 6 h
[8] = wild type E. coli NCM3722, growth: C-lim chemostat, doubling time 12 h
[9] = wild type E. coli NCM3722, growth: N-lim chemostat, doubling time 6 h
[10] = wild type E. coli NCM3722, growth: N-lim chemostat, doubling time 12 h
[11] = wild type E. coli NCM3722, growth: P-lim chemostat, doubling time 6 h
[12] = wild type E. coli NCM3722, growth: P-lim chemostat, doubling time 12 h

Sequence: MSFELPALPYAKDALAPHISAETIEYHYGKHHQTYVTNLNNLIKGTAFEGKSLEEIIRSSEGGVFNNAAQVWNHTFYWNCLAPNAGGEPTGKVAEAIAASFGSFADFKAQFTDAAIKNFGSGWTWLVKNSDGKLAIVSTSNAGTPLTTDATPLLTVDVWEHAYYIDYRNARPGYLEHFWALVNWEFVAKNLAA [P0AGD3]
- total protein half-life in vivo [1]: 5.3 ± 0.47 h
- total protein half-life in vivo [2]: 5.56 ± 1.2 h
- total protein half-life in vivo [3]: 4.773 ± 0.02 h
- total protein half-life in vivo [4]: 6.2 ± 1.1 h
- total protein half-life in vivo [5]: 4.8 ± 0.58 h
- total protein half-life in vivo [6]: 3.18 ± 0.084 h
- total protein half-life in vivo [7]: 5.96 ± 0.084 h
- total protein half-life in vivo [8]: 11.6 ± 0.35 h
- total protein half-life in vivo [9]: 5.07 ± 0.39 h
- total protein half-life in vivo [10]: 9.76 ± 0.58 h
- total protein half-life in vivo [11]: 5.95 ± 0.27 h
- total protein half-life in vivo [12]: 12 ± 0.36 h

Sequence: MELKKLMGHISIIPDYRQAWKMEHKLSDILLLTICAVISGAEGWEDIEDFGETHPDFLKQYGDFENGIPVHDTIARVVSCISPAKFHECFINWMRDCHSSDDKDVIAIDGKTLRHSYDKSRRRGAIHVISAFSTMHSLVIGQIKTDEKSNEITAIPELLNMLDIKGKIITTDAMGCQKDIAEKIQKQGGDYLFAVKGNQGRLNKAFEEKFPLKELNNPAHDSYAMSEKSHGREEIRLHIVCDVPDELIDFTFEWKGLKKLCVAVSFRSIIAEQKKELEMTVRYYISSADLTAEKFATAIRNHWHVENKLHWRLDVVMNEDDCKIRRGNAAELFSGIRHIAINILTNDKVFKAGLRRKMRKAAMDRNYLASVLTGSGLS
- total protein half-life in vivo [1]: 6.51 h
- total protein half-life in vivo [12]: 11.9 h

Sequence: MSRLVVVSNRIAPPDEHAASAGGLAVGILGALKAAGGLWFGWSGETGNEDQPLKKVKKGNITWASFNLSEQDLDEYYNQFSNAVLWPAFHYRLDLVQFQRPAWDGYLRVNALLADKLLPLLQDDDIIWIHDYHLLPFAHELRKRGVNNRIGFFLHIPFPTPEIFNALPTYDTLLEQLCDYDLLGFQTENDRLAFLDCLSNLTRVTTRSAKSHTAWGKAFRTEVYPIGIEPKEIAKQAAGPLPPKLAQLKAELKNVQNIFSVERLDYSKGLPERFLAYEALLEKYPQHHGKIRYTQIAPTSRGDVQAYQDIRHQLENEAGRINGKYGQLGWTPLYYLNQHFDRKLLMKIFRYSDVGLVTPLRDGMNLVAKEYVAAQDPANPGVLVLSQFAGAANELTSALIVNPYDRDEVAAALDRALTMSLAERISRHAEMLDVIVKNDINHWQECFISDLKQIVPRSAESQQRDKVATFPKLA
- total protein half-life in vivo [1]: 5.02 ± 0.71 h
- total protein half-life in vivo [2]: 4.68 ± 0.38 h
- total protein half-life in vivo [3]: 2.95 ± 0.046 h
- total protein half-life in vivo [4]: 3.23 ± 0.4 h
- total protein half-life in vivo [5]: 2.85 ± 0.093 h
- total protein half-life in vivo [6]: 2.4 ± 0.054 h
- total protein half-life in vivo [7]: 3.858 ± 0.033 h
- total protein half-life in vivo [8]: 6.061 ± 0.06 h
- total protein half-life in vivo [9]: 3.02 ± 0.29 h
- total protein half-life in vivo [10]: 4.47 ± 0.49 h
- total protein half-life in vivo [11]: 3.72 ± 0.24 h
- total protein half-life in vivo [12]: 6.83 ± 0.3 h

Sequence: MESLTLQPIARVDGTINLPGSKSVSNRALLLAALAHGKTVLTNLLDSDDVRHMLNALTALGVSYTLSADRTRCEIIGNGGPLHAEGALELFLGNAGTAMRPLAAALCLGSNDIVLTGEPRMKERPIGHLVDALRLGGAKITYLEQENYPPLRLQGGFTGGNVDVDGSVSSQFLTALLMTAPLAPEDTVIRIKGDLVSKPYIDITLNLMKTFGVEIENQHYQQFVVKGGQSYQSPGTYLVEGDASSASYFLAAAAIKGGTVKVTGIGRNSMQGDIRFADVLEKMGATICWGDDYISCTRGELNAIDMDMNHIPDAAMTIATAALFAKGTTTLRNIYNWRVKETDRLFAMATELRKVGAEVEEGHDYIRITPPEKLNFAEIATYNDHRMAMCFSLVALSDTPVTILDPKCTAKTFPDYFEQLARISQAA [P0A6D3]
- total protein half-life in vivo [1]: 5.15 ± 0.18 h
- total protein half-life in vivo [2]: 5.52 ± 1.1 h
- total protein half-life in vivo [3]: 4.53 ± 0.15 h
- total protein half-life in vivo [4]: 5.22 ± 0.56 h
- total protein half-life in vivo [5]: 4.53 ± 0.049 h
- total protein half-life in vivo [6]: 3.1 ± 0.1 h
- total protein half-life in vivo [7]: 5.96 ± 0.62 h
- total protein half-life in vivo [8]: 11.3 ± 0.63 h
- total protein half-life in vivo [9]: 4.45 ± 0.31 h
- total protein half-life in vivo [10]: 7.534 ± 0.05 h
- total protein half-life in vivo [11]: 5.98 ± 0.078 h
- total protein half-life in vivo [12]: 12.1 ± 1.5 h

Sequence: MQERHTEQDYRALLIADTPIIDVRAPIEFEHGAMPAAINLPLMNNDERAAVGTCYKQQGSDAALALGHKLVAGEIRQQRMDAWRAACLQNPQGILCCARGGQRSHIVQSWLHAAGIDYPLVEGGYKALRQTAIQATIELAQKPIVLIGGCTGSGKTLLVQQQPNGVDLEGLARHRGSAFGRTLQPQLSQASFENLLAAEMLKTDARQNLRLWVLEDESRMIGSNHLPECLRERMTQAAIAVVEDPFEIRLERLNEEYFLRMHHDFTHAYGDEQGWQEYCEYLHHGLSAIKRRLGLQRYNELAARLDAALTTQLTTGSTDGHLAWLVPLLEEYYDPMYRYQLEKKAEKVVFRGEWAEVAEWVKAR
- total protein half-life in vivo [1]: 4.83 ± 0.89 h
- total protein half-life in vivo [2]: 4.43 ± 0.057 h
- total protein half-life in vivo [3]: 4.35 ± 0.77 h
- total protein half-life in vivo [4]: 4.417 ± 0.0075 h
- total protein half-life in vivo [5]: 3.75 ± 0.5 h
- total protein half-life in vivo [6]: 3.16 ± 0.1 h
- total protein half-life in vivo [7]: 5.87 ± 0.98 h
- total protein half-life in vivo [8]: 10.2 ± 1.6 h
- total protein half-life in vivo [9]: 4.54 ± 0.24 h
- total protein half-life in vivo [10]: 7.414 ± 0.067 h
- total protein half-life in vivo [11]: 5.64 ± 0.47 h

Sequence: MMIRERIEEKLRAAFQPVFLEVVDESYRHNVPAGSESHFKVVLVSDRFTGERFLNRHRMIYSTLAEELSTTVHALALHTYTIKEWEGLQDTVFASPPCRGAGSIA [P0ABE2]
- total protein half-life in vivo [1]: 3.71 ± 0.15 h
- total protein half-life in vivo [4]: 1.81 ± 0.13 h
- total protein half-life in vivo [5]: 1.55 h
- total protein half-life in vivo [6]: 1.53 ± 0.071 h
- total protein half-life in vivo [7]: 2.52 ± 0.14 h
- total protein half-life in vivo [8]: 3.32 h
- total protein half-life in vivo [9]: 1.99 ± 0.31 h
- total protein half-life in vivo [10]: 3.19 h
- total protein half-life in vivo [11]: 3.23 h
- total protein half-life in vivo [12]: 5.55 ± 0.6 h
